Data published in the nanobody polyreactivity screen of Harvey et al. (2022).

Assay: yeast display, Sf9 membrane polyspecificity reagent, FACS + sequencing; frameworks hold sequencing errors
Outline: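 In a synthetic yeast display library (Saccharomyces cerevisiae BJ5465), nanobody expression was induced with galactose for 36–48 hours. FACS gates were set low and high (top ~1%) using anti-HA fluorescence for expression and streptavidin fluorescence for binding of the Sf9 membrane reagent. Each polyreactivity label is drawn from the gate of origin.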

Row | Sequence | polyreactivity (PSR sort gate)
1 | QVQLVESGGGLVQAGGSLRLSCAASGRIFARNAMGWYRPEPGKERELVAGITWSTASTYYADSVKGRFTISLDNAKNTVYLQMNSLKPEDTAVYYCAADSYYYYDYWYVYLYDYWGQGTQVTVSS | high polyreactivity
2 | QVQLVESGGGLVQAGGSLRLSCAASGRIFARNAMGWYRQAPGKERELVAAISSSGGTYYADSVKGRFTISRDNAKNTVYLQMNSLKPEDTAVYYCNARVRTQQRWVDYWGQGTQVTVSS | high polyreactivity
3 | QVQLVESGGGLVQAGGSLRLSCAASGRIFARYAMGWYRQAPGKERELVAAISRGGGSTYYADSVKGRFTISRDNAKNTVYLQMNSLKPEDTAVYYCNRLSKQKQEFDYWGQGTQVTVSS | high polyreactivity
4 | QVQLVESGGGLVQAGGSLRLSCAASGRIFARYTMGWYRQAPGKERDLVAAISRGGGTNYADSVKGRFTISRDNAKNTVYLQMNSLKPEDTAVSYCAADVSLVYPYSYRYYYWGQGTQVTVSS | low polyreactivity
5 | QVQLVESGGGLVQAGGSLRLSCAASGRIFASNAMGWYRPAPGKERELVAAITTTGGSTYYADSVKGRFTISRDNAKNTVYLQMNSLKPEDTAVYYCAKRLGYRYPTYDYWGQGTQVTVSS | high polyreactivity
6 | QVQLVESGGGLVQAGGSLRLSCAASGRIFASYAMGWYRQAPGKERELVASITRRGGSTYYADSVKGRFTISRDNAKNTVYLQMNSLKPPGSTYEGGYWGQGTQVTVSS | low polyreactivity
7 | QVQLVESGGGLVQAGGSLRLSCAASGRIFASYVMGWYSQAPGKERELVAAISRSGVSTYYADSVKGRFTISRDNEKNTVYLQINSLIPEDTAVYYCATTRFPRSFQEFGYWGQGTQVNVSS | high polyreactivity
8 | QVQLVESGGGLVQAGGSLRLSCAASGRIFATNAMGWYREAPGKERELVATITRSAGRTYYADSVKGRFTISRDNAKNSVYLQMNSLKPEDTAVYYCAASYWDTEPGYREYDYWGQGTQVTVSS | low polyreactivity
9 | QVQLVESGGGLVQAGGSLRLSCAASGRIFATNAMGWYRQAPGKERELVAGIRRSGARTYYADSVKGRFTISRDNAKNTVYLQMYSLKPEDTAVYYCNASLFIEIYSFQYDDHFAEYGYWGQGTQVTVSS | high polyreactivity
10 | QVQLVESGGGLVQAGGSLRLSCAASGRIFATNAMGWYRQAPGKERELVATITRSAGRTYYADSVKGRFTISRDNAKYTVYLQMNSLKPEDTAVYYCAASYWDTEPGYREYDYWGQGSQVTVSS | low polyreactivity
11 | QVQLVESGGGLVQAGGSLRLSCAASGRIFAVNAMGWYRQAPGKERELVASIRWSGGSTYYADSVKGRFTISRDNAKNTVYLQMNSLKPEDTAVYYCAAVFYLWGQGTQVTVSS | high polyreactivity
12 | QVQLVESGGGLVQAGGSLRLSCAASGRIFAVNAMGWYRQAPGKERELVATIRGSGTSTYYADSVKGRFTISRDNAKNTVYLQMNSLKPEDTAVYYCAARGRYRQFNYWGQGTQVTVSS | high polyreactivity
13 | QVQLVESGGGLVQAGGSLRLSCAASGRIFAVNAMGWYRQAPGNERELVAAITRGGSTNYADSVKGRFTISRDNAKNTVYLQMNSLKPEDTAVYYCAARVYTSPPVRSAPTGYYYWGQGTQVTVSS | high polyreactivity
14 | QVQLVESGGGLVQAGGSLRLSCAASGRIFAWNDMGWYRQAPGKERELLPLFWSGGSTYYADSVKGRFTIARDNAKNTGYLQRNSLKPEDTAVYYCNKDSPPITPYDYWGQGTQVTVSS | low polyreactivity
15 | QVQLVESGGGLVQAGGSLRLSCAASGRIFAWYTMGWYRQAPGKERELVAAISWNGGRTYYADSVKGRFTISRDNAKNTVYLQMNSLKPEDTAVYYCNADWYWRVYWGQGTQVTVSS | high polyreactivity
16 | QVQLVESGGGLVQAGGSLRLSCAASGRIFAYNAMGWYRQAPGKERELVAAIDSGGDTNYADSVKGRFTISRDNAKNTVYLQMNSLKPEDTAVYYCAARLYVLRWYPYDYWGHGTQVTVSS | low polyreactivity
17 | QVQLVESGGGLVQAGGSLRLSCAASGRIFAYNAMGWYRQAPGKERELVAAITWSGGITYYADSVKGRFTISRDNAKNTVYLQMNSLKPEDTAVYYCNVYVSAGEEDEYWGQGTQVTVSS | low polyreactivity
18 | QVQLVESGGGLVQAGGSLRLSCAASGRIFAYNAMGWYRQAPGKERELVAAITWSGSTYYADSVKGRFTISRDNAKNTVYLQMNSLKPEDTAVYYCNAQYRGYWNRGYDYWGQGTQVTVSS | high polyreactivity
19 | QVQLVESGGGLVQAGGSLRLSCAASGRIFAYYAKGWYRQAPRKQRELVAAISSGGNTNYADSVKGRFTISRDNAKKTVYLQMNSLKPEDSAVYYCSAYHFSFGWIRVDDWGQGTQVTVSS | high polyreactivity
20 | QVQLVESGGGLVQAGGSLRLSCAASGRIFAYYVMGWYRQAPAKERELVASISSGGGTYYADSVKGRFTISRDNAKNTVYLQMNSLKPEDTAVYYCAARWLRYVYPDGHLFWYDYWGQGTQVTVSS | high polyreactivity
21 | QVQLVESGGGLVQAGGSLRLSCAASGRIFAYYVMGWYRQGPGKERELVASISSGGGTYYADSVKGRFTISRDNAKNTVYLQMNSLKPEDTAVYYCAARWRRYVYPDGHLFWYDYWGQGTQVTVSS | high polyreactivity
22 | QVQLVESGGGLVQAGGSLRLSCAASGRIFDANAMGWYRQAPGKERELVAANSRRGGRTYYADSVKGRFTISRDNAKNTVYLQMNSLKPEDTAVYYCARVPTRAEDVAGWTGMDYWGQGTQVTVSS | high polyreactivity

Row | Sequence | polyreactivity (PSR sort gate)
23 | QVQLVESGGGLVQAGGSLRLSCAASGRIFDCYAMGWYIQAPGKERELVAAIRASGGRTYYADSVKGRFTISRDNAKNTVYLQMNSLKPEDTAVYYCAADSVKYGGDYWGQGTQVTVSS | high polyreactivity
24 | QVQLVESGGGLVQAGGSLRLSCAASGRIFDDNAMGWYRQAHGKERELVATISSTGGRTYYADSVKGRFTISRDNAKKTVYLQMNSLKPEDTAVYYCAARRLQGGYYYWGQGTQVTVSS | high polyreactivity
25 | QVQLVESGGGLVQAGGSLRLSCAASGRIFDDYDMGWYRQAPGKEREFVAAISTSGGSTYYADSVKGRFTISRDNAKNTVYLQMNSLKPEDTAVYYCATREYRYTGRQSRRYYWGQGTQVTVSS | high polyreactivity
26 | QVQLVESGGGLVQAGGSLRLSCAASGRIFDDYDMGWYRQAPGKERELVAAISFDGGNTYADSVKGRFTISRDNAKNTVYLQMNSLKPEDTAVYYCARDDTSPGYGDQSSNAAYYYWGQGTQVTVSS | low polyreactivity
27 | QVQLVESGGGLVQAGGSLRLSCAASGRIFDGNAMGWYRQAPGKERELVATITRGGRTNYADSVKGRFTISRDNAKNTVYLQMNTLKPEDTAVYYCATSYPGYAYNQAWYPYGYWGQGTQVTVSS | low polyreactivity
28 | QVQLVESGGGLVQAGGSLRLSCAASGRIFDGNTMGWYIPAPGKERELVAAISGGGSTDYADSVKGRFTISRDNAKNTVYLQMNSLKPEDTAVYYCAATTGPVPLKGDYWGQGTQVTVSS | low polyreactivity
29 | QVQLVESGGGLVQAGGSLRLSCAASGRIFDGYAMGWYRQAPGKEWELVASISDDGGSTYYADSVKGRFTISRDNEQNTVYLQLNSLKPDDTAVYYCAAVYRRRSYSFYYWGHGTQVTVSS | high polyreactivity
30 | QVQLVESGGGLVQAGGSLRLSCAASGRIFDGYTMGWYRQAPGKERELVAAITYRSGRTYYADSVKGRFTISRDNAKNTVYLQMNSLKPEDTAVYYCNKVKRSFIVNTDDYCGQGTQVTVSS | high polyreactivity
31 | QVQLVESGGGLVQAGGSLRLSCAASGRIFDHNAMGWYRQAPGKERELVAAITWSGGRTYYADSVKGRFTISRDNAKNTVYLQMNSLKPEDTAVYYCNAPVSRRGGNYWGLGTQVTVSS | high polyreactivity
32 | QVQLVESGGGLVQAGGSLRLSCAASGRIFDIYAMGWYRQAPGKERELVASISWSGDSTYYADSVKGRFTISRDNAKNTVYLEMNSLKPEDTAVYYCAAEGEDTEGYDYDYWGQGTQVTVSS | low polyreactivity
33 | QVQLVESGGGLVQAGGSLRLSCAASGRIFDIYDMGWYIQAPGKERELVAAITSGGNTYYADSVKWRFTISRDNAKNTVYLQMNSLKPEDTAVYYCNAARETRPRDYYWGQGTQVTVSS | low polyreactivity
34 | QVQLVESGGGLVQAGGSLRLSCAASGRIFDKYTMGWYRQAPGTERELVAAISKSGSGTFYADSVKGRFTISRDNAKNTVYLQMNSLKPEDTAVYYCARVYTVGTGRSWRLDYWGQGTQVTVSS | high polyreactivity
35 | QVQLVESGGGLVQAGGSLRLSCAASGRIFDLNAMGWYRQAPGKERELVAAISYSGGRTFYADSVKGRFTISRDNAKNTVYLQMNSLKPEDTAVYYCNARYGKPAYQYRMDYWGQGTQVTVSS | low polyreactivity
36 | QVQLVESGGGLVQAGGSLRLSCAASGRIFDLNAMGWYRQAPGKERELVASITTSTGSTYYADSVKGRFTISRDNAKNTVYLQMNSLKPEDTAVYYCAADKSTHPFPSDPGYGYWGQGTQVTVSS | low polyreactivity
37 | QVQLVESGGGLVQAGGSLRLSCAASGRIFDLNAMGWYRQAPGKERELVATITRSGVSTYYADSVKGRFTISRDNAKNTVYLQLYSLKPEDTAVYYCAKDRYGWGYDYWGQGTQVTVSS | low polyreactivity
38 | QVQLVESGGGLVQAGGSLRLSCAASGRIFDLYAMGWYRQAPGKERELVATISSGGSTYYADSVKVRFTISRDNAKNTVYLQMNSLKPEDTAVYYCAADSWVQFDYWGQGKQVTVSS | low polyreactivity
39 | QVQLVESGGGLVQAGGSLRLSCAASGRIFDNYAMGWYRQAPGKERELVAAITSTGRTNYADSVKGRFTISRDNAKYTVYLQMYSLKPEDTAVYYCNVDYQYARSGHANAYEYYYWGQGTQVTVSS | low polyreactivity
40 | QVQLVESGGGLVQAGGSLRLSCAASGRIFDNYVMGWYRQAPGKERELVAAITWDGTSTYYADSVKGRFTISRDNAKNTVYLQMNSLKPEDTAVYYCAADFYPYSWEEVDYWGQGTQVTVSS | low polyreactivity
41 | QVQLVESGGGLVQAGGSLRLSCAASGRIFDPHAMGWYRPAPGKERELVASSTRRGGSTYYADSVKGRFTSSRDIAKNNVYLQMNSLKPEDTSVYYCARPNLLSGDYWGQGTQVTVSS | high polyreactivity
42 | QVQLVESGGGLVQAGGSLRLSCAASGRIFDPNVMVRYRTAPGKERELVAAIRTSGGRTYYADSVKGRFTISRDNAKNTVYLQMNSLKPEDTAVYYCAALYKGKYDYWGQGTQVNVSS | high polyreactivity
43 | QVQLVESGGGLVQAGGSLRLSCAASGRIFDRNAMGWYRQAPGKERELVARISRTGGSTYYADSVKGRFTISRDNAKNTVYLQMNSLKPEDTAVYYCAASRGGGYDYWGQGTQVTVSS | high polyreactivity
